Drawing on patent US20230250135A1, this text covers binding relative to reference UFV161454, fold increase in binding relative to reference UFV161686 and binding relative to reference UFV161333 for 1 molecule.

What all share (conditions): remark: other sources report otherwise
Assay [1] has as its target UFV161453 (influenza A virus A/Hong Kong/1/68 (H3N2)).
Assay [2] addresses UFV161333 (influenza A virus A/Hong Kong/1/68 (H3N2)). Put plainly: Binding-AlphaLISA, Expi293F supernatant, normalized to UFV161686. (Alpha assays give light when donor and acceptor beads are brought close together.)
For assay [3], the target named is UFV161715 (influenza A virus A/Hong Kong/1/68 (H3N2)). Put plainly: Binding-AlphaLISA, Expi293F supernatant, normalized to UFV161333.
Assay [4] has as its target UFV161721 (influenza A virus A/Hong Kong/1/68 (H3N2)). Described as above.

B1: CR9114 (antibody, V domains shown)
VH: QVQLVQSGAEVKKPGSSVKVSCKSSGGTSNNYAISWVRQAPGQGLDWMGGISPIFGSTAYAQKFQGRVTISADIFSNTAYMELNSLTSEDTAVYFCARHGNYYYYSGMDVWGQGTTVTVSS
VL: SYVLTQPPAVSGTPGQRVTISCSGSDSNIGRRSVNWYQQFPGTAPKLLIYSNDQRPSVVPDRFSGSKSGTSASLAISGLQSEDEAEYYCAAWDDSLKGAVFGGGTQLTVL
As for B1, the binding relative to reference UFV161454 in assay [1] is 61%. In assay [2], this molecule had a fold increase in binding relative to reference UFV161686 of 5 fold. The binding relative to reference UFV161333 in assay [3] and in assay [4] was 145% in each case.
